Source: patent US20070059284A1

Target: Human IL-21 Receptor (human) (UniProt Q9HBE5)
Assay: cell-based or functional assay

human IL-21-saporin immunotoxin conjugate (from UniProt P20656 25-277)
3H-thymidine incorporation of conjugate-treated MOLT-13 cells relative to IL-21 treated MOLT-13 cells: 70% | density of conjugate-treated DEL cells relative to untreated cells (3H-thymidine): 25% | density of conjugate-treated HuT-78 cells relative to untreated cells (3H-thymidine): 33% | density of conjugate-treated HuT-102 cells relative to untreated cells (3H-thymidine): 20% | density of conjugate-treated YT cells relative to untreated cells (3H-thymidine): 33% | growth inhibition of IM-9 cells at the maximal conjugate concentration (250 ng/ml), Alamar Blue proliferation assay: 79% | growth inhibition of RAMOS cells at the maximal conjugate concentration (250 ng/ml), Alamar Blue proliferation assay: 65%
